{"source": "patent US20230069418A1", "about": "(XIAMEN INNODX BIOTECH, published 2023)", "binders": {"B1": {"name": "2A7 monoclonal antibody (antibody, V domains shown)", "VH": "QVQLQQPGAELVKPGASVKLSCKASGYTFTRYWMHWVMQRPGQDLEWIGEINPINGRTNYNEKFRRKATLTVDKSSSTVYIQFSSLTSEDSAVYFCTREGYRNDYYYAMDFWGRGTSVTVSS", "VL": "DIQMTQTSSSLSASPGDRVTISCRASQGINNYLNWYKQKTDGTFKLLIYYTSYLHSGVPSRFSGRGSGTDYSLTISNLEPEDVATYYCQQYGKLPWTFGGGTKLEIK", "notes": "also called HBc-2A7; 2A7-21"}}, "biological_target": "T1, polypeptide S29 (HBcAg-aa141-aa154) (hepatitis B virus)", "T1 peptide": "STLPETTVVRRRGR", "assay": "indirect ELISA on coated peptide, antibody 1 ug/mL; positive if measured/background > 5"}
{"binder": "B1", "values": [{"measurement": "binding result", "value": "binds"}]}
